{"source": "patent US20120316071A1", "about": "(published 2012)", "binders": {"B1": {"name": "Fab VH5-51_IGHD5-18*01>3_IGHJ4*01 & V3-4_IGLJ1*01 (parental, wildtype) (Fab, V domains shown)", "VH": "EVQLVQSGAEVKKPGESLKISCKGSGYSFTSYWIGWVRQMPGKGLEWMGIIYPGDSDTRYSPSFQGQVTISADKSISTAYLQWSSLKASDTAMYYCARRGYSYGYDYFDYWGQGTLVTVSS", "VL": "QTVVTQEPSFSVSPGGTVTLTCGLSSGSVSTSYYPSWYQQTPGQAPRTLIYSTNTRSSGVPDRFSGSILGNKAALTITGAQADDESDYYCVLYMGSGISYVFGTGTKVTVL", "notes": "Fab; Expressed in E. coli with CH1 (plasmid A, His6 and Flag tags) and lambda CL (plasmid E); also called Wildtype & Wildtype; parent Hit Fab"}, "B2": {"name": "Fab VH5-51_IGHD5-18*01>3_IGHJ4*01 G100K/G104T G24T/S28R/G35V (KT TRV) & V3-4_IGLJ1*01 V91L/S96P (LP) (Fab, V domains shown)", "VH": "EVQLVQSGAEVKKPGESLKISCKTSGYRFTSYWIVWVRQMPGKGLEWMGIIYPGDSDTRYSPSFQGQVTISADKSISTAYLQWSSLKASDTAMYYCARRKYSYTYDYFDYWGQGTLVTVSS", "VL": "QTVVTQEPSFSVSPGGTVTLTCGLSSGSVSTSYYPSWYQQTPGQAPRTLIYSTNTRSSGVPDRFSGSILGNKAALTITGAQADDESDYYCLLYMGPGISYVFGTGTKVTVL", "notes": "Fab; Expressed in E. coli with CH1 (plasmid A, His6 and Flag tags) and lambda CL (plasmid E); also called H:KT TRV & L:LP"}, "B3": {"name": "Fab VH5-51_IGHD5-18*01>3_IGHJ4*01 G100K/G104T G24L/S28R/G35V (KT LRV) & V3-4_IGLJ1*01 V91L/S96P S52F (Fab, V domains shown)", "VH": "EVQLVQSGAEVKKPGESLKISCKTSGYRFTSYWIVWVRQMPGKGLEWMGIIYPGDSDTRYSPSFQGQVTISADKSISTAYLQWSSLKASDTAMYYCARRKYSYTYDYFDYWGQGTLVTVSS", "VL": "QTVVTQEPSFSVSPGGTVTLTCGLSSGSVSTSYYPSWYQQTPGQAPRTLIYFTNTRSSGVPDRFSGSILGNKAALTITGAQADDESDYYCLLYMGPGISYVFGTGTKVTVL", "notes": "Fab; Expressed in E. coli with CH1 (plasmid A, His6 and Flag tags) and lambda CL (plasmid E); also called G100K/G104T G24L/S28R/G35V & V91L/S96P S52F"}, "B4": {"name": "Fab VH5-51_IGHD5-18*01>3_IGHJ4*01 G100K/G104T G24A/S28R/G35V (KT ARV) & V3-4_IGLJ1*01 V91L/S96P S52P (Fab, V domains shown)", "VH": "EVQLVQSGAEVKKPGESLKISCKTSGYRFTSYWIVWVRQMPGKGLEWMGIIYPGDSDTRYSPSFQGQVTISADKSISTAYLQWSSLKASDTAMYYCARRKYSYTYDYFDYWGQGTLVTVSS", "VL": "QTVVTQEPSFSVSPGGTVTLTCGLSSGSVSTSYYPSWYQQTPGQAPRTLIYPTNTRSSGVPDRFSGSILGNKAALTITGAQADDESDYYCLLYMGPGISYVFGTGTKVTVL", "notes": "Fab; Expressed in E. coli with CH1 (plasmid A, His6 and Flag tags) and lambda CL (plasmid E); also called G100K/G104T G24A/S28R/G35V & V91L/S96P S52P"}, "B5": {"name": "Fab VH5-51_IGHD5-18*01>3_IGHJ4*01 G100K/G104T (KT) & V3-4_IGLJ1*01 (wildtype) (Fab, V domains shown)", "VH": "EVQLVQSGAEVKKPGESLKISCKGSGYSFTSYWIGWVRQMPGKGLEWMGIIYPGDSDTRYSPSFQGQVTISADKSISTAYLQWSSLKASDTAMYYCARRKYSYTYDYFDYWGQGTLVTVSS", "VL": "QTVVTQEPSFSVSPGGTVTLTCGLSSGSVSTSYYPSWYQQTPGQAPRTLIYSTNTRSSGVPDRFSGSILGNKAALTITGAQADDESDYYCVLYMGSGISYVFGTGTKVTVL", "notes": "Fab; Expressed in E. coli with CH1 (plasmid A, His6 and Flag tags) and lambda CL (plasmid E); also called H:KT & L:wt; KT double mutant"}, "B6": {"name": "Fab VH5-51_IGHD5-18*01>3_IGHJ4*01 G100K/G104T G24L/S28R/G35V (KT LRV) & V3-4_IGLJ1*01 V91L/S96P S52T (Fab, V domains shown)", "VH": "EVQLVQSGAEVKKPGESLKISCKTSGYRFTSYWIVWVRQMPGKGLEWMGIIYPGDSDTRYSPSFQGQVTISADKSISTAYLQWSSLKASDTAMYYCARRKYSYTYDYFDYWGQGTLVTVSS", "VL": "QTVVTQEPSFSVSPGGTVTLTCGLSSGSVSTSYYPSWYQQTPGQAPRTLIYTTNTRSSGVPDRFSGSILGNKAALTITGAQADDESDYYCLLYMGPGISYVFGTGTKVTVL", "notes": "Fab; Expressed in E. coli with CH1 (plasmid A, His6 and Flag tags) and lambda CL (plasmid E); also called G100K/G104T G24L/S28R/G35V & V91L/S96P S52T"}, "B7": {"name": "Fab VH5-51_IGHD5-18*01>3_IGHJ4*01 G100K/G104T G24A/S28R/G35V (KT ARV) & V3-4_IGLJ1*01 V91L/S96P S52V (Fab, V domains shown)", "VH": "EVQLVQSGAEVKKPGESLKISCKTSGYRFTSYWIVWVRQMPGKGLEWMGIIYPGDSDTRYSPSFQGQVTISADKSISTAYLQWSSLKASDTAMYYCARRKYSYTYDYFDYWGQGTLVTVSS", "VL": "QTVVTQEPSFSVSPGGTVTLTCGLSSGSVSTSYYPSWYQQTPGQAPRTLIYVTNTRSSGVPDRFSGSILGNKAALTITGAQADDESDYYCLLYMGPGISYVFGTGTKVTVL", "notes": "Fab; Expressed in E. coli with CH1 (plasmid A, His6 and Flag tags) and lambda CL (plasmid E); The light-chain S52 variants were made on the KT TRV heavy chain (T0104); also called G100K/G104T G24A/S28R/G35V & V91L/S96P S52V"}, "B8": {"name": "Fab VH5-51_IGHD5-18*01>3_IGHJ4*01 G100K & V3-4_IGLJ1*01 (wildtype) (Fab, V domains shown)", "VH": "EVQLVQSGAEVKKPGESLKISCKGSGYSFTSYWIGWVRQMPGKGLEWMGIIYPGDSDTRYSPSFQGQVTISADKSISTAYLQWSSLKASDTAMYYCARRKYSYGYDYFDYWGQGTLVTVSS", "VL": "QTVVTQEPSFSVSPGGTVTLTCGLSSGSVSTSYYPSWYQQTPGQAPRTLIYSTNTRSSGVPDRFSGSILGNKAALTITGAQADDESDYYCVLYMGSGISYVFGTGTKVTVL", "notes": "Fab; Expressed in E. coli with CH1 (plasmid A, His6 and Flag tags) and lambda CL (plasmid E); also called G100K & Wildtype"}, "B9": {"name": "Fab VH5-51_IGHD5-18*01>3_IGHJ4*01 G100K/G104T G24A/S28R/G35V (KT ARV) & V3-4_IGLJ1*01 V91L/S96P S52I (Fab, V domains shown)", "VH": "EVQLVQSGAEVKKPGESLKISCKTSGYRFTSYWIVWVRQMPGKGLEWMGIIYPGDSDTRYSPSFQGQVTISADKSISTAYLQWSSLKASDTAMYYCARRKYSYTYDYFDYWGQGTLVTVSS", "VL": "QTVVTQEPSFSVSPGGTVTLTCGLSSGSVSTSYYPSWYQQTPGQAPRTLIYITNTRSSGVPDRFSGSILGNKAALTITGAQADDESDYYCLLYMGPGISYVFGTGTKVTVL", "notes": "Fab; Expressed in E. coli with CH1 (plasmid A, His6 and Flag tags) and lambda CL (plasmid E); also called G100K/G104T G24A/S28R/G35V & V91L/S96P S52I"}}, "key": {"[1]": {"target": "T1, Recombinant Human DLL4 (delta-like protein 4) (human, UniProt Q9NR61 27-524)", "T1 construct": "Bought recombinant human DLL4 coated on the ELISA plate; also called rHuman DLL4", "experiment": "ELISA, DLL4 coated on plate, Fab at 25 nM (2-fold dilution series), absorbance at 450 nm"}, "[2]": {"target": "T1, Recombinant Human DLL4 (delta-like …)", "experiment": "ELISA, DLL4 coated on plate, Fab at 12.5 nM (2-fold dilution series), absorbance at 450 nm"}, "[3]": {"target": "T1, Recombinant Human DLL4 (delta-like …)", "experiment": "ELISA, DLL4 coated on plate, Fab at 50 nM (2-fold dilution series), absorbance at 450 nm"}, "[4]": {"target": "T1, Recombinant Human DLL4 (delta-like …)", "experiment": "ELISA, DLL4 coated on plate, Fab at 100 nM (2-fold dilution series), absorbance at 450 nm"}}}
{"binder": "B1", "values": [{"measurement": "ELISA signal", "setting": "[1]", "result": 0.18}, {"measurement": "ELISA signal", "setting": "[2]", "result": 0.17}, {"measurement": "ELISA signal", "setting": "[3]", "result": 0.16}, {"measurement": "ELISA signal", "setting": "[4]", "result": 0.17}]}
{"binder": "B2", "values": [{"measurement": "ELISA signal", "setting": "[1]", "result": 0.58}, {"measurement": "ELISA signal", "setting": "[2]", "result": 0.45}, {"measurement": "ELISA signal", "setting": "[3]", "result": 0.81}, {"measurement": "ELISA signal", "setting": "[4]", "result": 1}]}
{"binder": "B3", "values": [{"measurement": "ELISA signal", "setting": "[1]", "result": 0.49}, {"measurement": "ELISA signal", "setting": "[2]", "result": 0.42}, {"measurement": "ELISA signal", "setting": "[3]", "result": 0.69}, {"measurement": "ELISA signal", "setting": "[4]", "result": 0.99}]}
{"binder": "B4", "values": [{"measurement": "ELISA signal", "setting": "[1]", "result": 0.59}, {"measurement": "ELISA signal", "setting": "[2]", "result": 0.43}, {"measurement": "ELISA signal", "setting": "[3]", "result": 0.79}, {"measurement": "ELISA signal", "setting": "[4]", "result": 1}]}
{"binder": "B5", "values": [{"measurement": "ELISA signal", "setting": "[1]", "result": 0.16}, {"measurement": "ELISA signal", "setting": "[2]", "result": 0.18}, {"measurement": "ELISA signal", "setting": "[3]", "result": 0.18}, {"measurement": "ELISA signal", "setting": "[4]", "result": 0.18}]}
{"binder": "B6", "values": [{"measurement": "ELISA signal", "setting": "[1]", "result": 0.62}, {"measurement": "ELISA signal", "setting": "[2]", "result": 0.41}, {"measurement": "ELISA signal", "setting": "[3]", "result": 0.79}, {"measurement": "ELISA signal", "setting": "[4]", "result": 0.99}]}
{"binder": "B7", "values": [{"measurement": "ELISA signal", "setting": "[1]", "result": 0.6}, {"measurement": "ELISA signal", "setting": "[2]", "result": 0.43}, {"measurement": "ELISA signal", "setting": "[3]", "result": 0.74}, {"measurement": "ELISA signal", "setting": "[4]", "result": 0.95}]}
{"binder": "B8", "values": [{"measurement": "ELISA signal", "setting": "[1]", "result": 0.18}, {"measurement": "ELISA signal", "setting": "[2]", "result": 0.19}, {"measurement": "ELISA signal", "setting": "[3]", "result": 0.19}, {"measurement": "ELISA signal", "setting": "[4]", "result": 0.2}]}
{"binder": "B9", "values": [{"measurement": "ELISA signal", "setting": "[1]", "result": 0.6}, {"measurement": "ELISA signal", "setting": "[2]", "result": 0.4}, {"measurement": "ELISA signal", "setting": "[3]", "result": 0.82}, {"measurement": "ELISA signal", "setting": "[4]", "result": 1.04}]}
